# Laboratory results from patent US20230293638A1 (Eli Lilly, published 2023).
# Substitutions are numbered along the chain they refer to. Numbered stars: 1 amine (or outer) side, 2 acyl side, 3 side chain; on linkers, the order of the positions; unused ones are H or OH. Square brackets hold non-standard residues; d marks the D form. Side chains are listed from the residue outwards. Ends that are not written are not given here. * marks the point of attachment. C20 diacid = O=C(O)CCCCCCCCCCCCCCCCCCC(=O)*; γGlu = O=C(O)[C@H](CCC(=O)[*:2])N[*:1]; AEEA = NCCOCCOCC(=O)O; Aib = CC(C)(N)C(=O)O
# B1: Peptide 218 (peptide)
# peptide: YXEGTXTSDYSIXLDXKAQXEFIXYLIEGGPSSGAPPPS
# modifications: Aib2; αMeF(2F)6; αMeL13; Dap16; K17((2-[2-(2-Amino-ethoxy)-ethoxy]-acetyl)2-(γGlu)-CO-(CH2)18-CO2H); Aib20; D-Glu24; C-terminal NH2
# B2: Peptide 238 (peptide)
# peptide: B1 peptide with Y10L, Y25X
# modifications: not fully specified; Aib2; αMeF(2F)6; αMeL13; Orn16; K17((2-[2-(2-Amino-ethoxy)-ethoxy]-acetyl)2-(γGlu)-CO-(CH2)16-CO2H); Aib20; D-Glu24; αMeY25; C-terminal NH2
# B3: Peptide 246 (peptide)
# peptide: B1 peptide with Y10A, E21A, Y25X
# modifications: not fully specified; Aib2; αMeF(2F)6; αMeL13; Orn16; K17((2-[2-(2-Amino-ethoxy)-ethoxy]-acetyl)2-(γGlu)-CO-(CH2)16-CO2H); Aib20; D-Glu24; αMeY25; C-terminal NH2
# B4: Peptide 217 (peptide)
# peptide: B1 peptide
# modifications: Aib2; αMeF(2F)6; αMeL13; Dab16; K17((2-[2-(2-Amino-ethoxy)-ethoxy]-acetyl)2-(γGlu)-CO-(CH2)18-CO2H); Aib20; D-Glu24; C-terminal NH2
# B5: Peptide 221 (peptide)
# peptide: B1 peptide with X16E
# modifications: Aib2; αMeF(2F)6; αMeL13; K17((2-[2-(2-Amino-ethoxy)-ethoxy]-acetyl)2-(γGlu)-CO-(CH2)16-CO2H); Aib20; D-Glu24; C-terminal NH2
# B6: Peptide 223 (peptide)
# peptide: B1 peptide with X16E, X24E, Y25X
# modifications: Aib2; αMeF(2F)6; αMeL13; K17((2-[2-(2-Amino-ethoxy)-ethoxy]-acetyl)2-(γGlu)-CO-(CH2)18-CO2H); Aib20; αMeY25; C-terminal NH2
# B7: Peptide 214 (peptide)
# peptide: B1 peptide with X16E
# modifications: Aib2; αMeF(2F)6; αMeL13; K17((2-[2-(2-Amino-ethoxy)-ethoxy]-acetyl)2-CO-(CH2)16-CO2H); Aib20; D-Glu24; C-terminal NH2
# B8: Peptide 243 (peptide)
# peptide: B1 peptide with Y10L, E21T, Y25X
# modifications: not fully specified; Aib2; αMeF(2F)6; αMeL13; Orn16; K17((2-[2-(2-Amino-ethoxy)-ethoxy]-acetyl)2-(γGlu)-CO-(CH2)16-CO2H); Aib20; D-Glu24; αMeY25; C-terminal NH2
# B9: Peptide 233 (peptide)
# peptide: B1 peptide with Y10X
# modifications: not fully specified; Aib2; αMeF(2F)6; 4Pal10; αMeL13; Dab16; K17((2-[2-(2-Amino-ethoxy)-ethoxy]-acetyl)2-(γGlu)-CO-(CH2)16-CO2H); Aib20; D-Glu24; C-terminal NH2
# B10: Peptide 26 (peptide)
# peptide: Y[Aib]EGTFTSDYSIK([AEEA-AEEA-γGlu-C20 diacid])LDKIAQ[Aib]AFIEYLIEGGPSSGAPPPS-NH2
# modifications: N-terminus assumed
# SMILES: CC[C@H](C)[C@H](NC(=O)[C@H](CCCCN)NC(=O)[C@H](CC(=O)O)NC(=O)[C@H](CC(C)C)NC(=O)[C@H](CCCCNC(=O)COCCOCCNC(=O)COCCOCCNC(=O)CC[C@H](NC(=O)CCCCCCCCCCCCCCCCCCC(=O)O)C(=O)O)NC(=O)[C@@H](NC(=O)[C@H](CO)NC(=O)[C@H](Cc1ccc(O)cc1)NC(=O)[C@H](CC(=O)O)NC(=O)[C@H](CO)NC(=O)[C@@H](NC(=O)[C@H](Cc1ccccc1)NC(=O)[C@@H](NC(=O)CNC(=O)[C@H](CCC(=O)O)NC(=O)C(C)(C)NC(=O)[C@@H](N)Cc1ccc(O)cc1)[C@@H](C)O)[C@@H](C)O)[C@@H](C)CC)C(=O)N[C@@H](C)C(=O)N[C@@H](CCC(N)=O)C(=O)NC(C)(C)C(=O)N[C@@H](C)C(=O)N[C@@H](Cc1ccccc1)C(=O)N[C@H](C(=O)N[C@@H](CCC(=O)O)C(=O)N[C@@H](Cc1ccc(O)cc1)C(=O)N[C@@H](CC(C)C)C(=O)N[C@H](C(=O)N[C@@H](CCC(=O)O)C(=O)NCC(=O)NCC(=O)N1CCC[C@H]1C(=O)N[C@@H](CO)C(=O)N[C@@H](CO)C(=O)NCC(=O)N[C@@H](C)C(=O)N1CCC[C@H]1C(=O)N1CCC[C@H]1C(=O)N1CCC[C@H]1C(=O)N[C@@H](CO)C(N)=O)[C@@H](C)CC)[C@@H](C)CC
# B11: Peptide 220 (peptide)
# peptide: YXEGTXTSDYSIXLDEKAQXEFIXYLIEGG
# modifications: Aib2; αMeF(2F)6; αMeL13; K17((2-[2-(2-Amino-ethoxy)-ethoxy]-acetyl)2-(γGlu)-CO-(CH2)16-CO2H); Aib20; D-Glu24; C-terminal NH2
# B12: Peptide 25 (peptide)
# peptide: Y[Aib]EGTFTSDYSK([AEEA-AEEA-γGlu-C20 diacid])LLDKIAQ[Aib]AFIEYLIEGGPSSGAPPPS-NH2
# modifications: N-terminus assumed
# SMILES: CC[C@H](C)[C@H](NC(=O)[C@H](CCCCN)NC(=O)[C@H](CC(=O)O)NC(=O)[C@H](CC(C)C)NC(=O)[C@H](CC(C)C)NC(=O)[C@H](CCCCNC(=O)COCCOCCNC(=O)COCCOCCNC(=O)CC[C@H](NC(=O)CCCCCCCCCCCCCCCCCCC(=O)O)C(=O)O)NC(=O)[C@H](CO)NC(=O)[C@H](Cc1ccc(O)cc1)NC(=O)[C@H](CC(=O)O)NC(=O)[C@H](CO)NC(=O)[C@@H](NC(=O)[C@H](Cc1ccccc1)NC(=O)[C@@H](NC(=O)CNC(=O)[C@H](CCC(=O)O)NC(=O)C(C)(C)NC(=O)[C@@H](N)Cc1ccc(O)cc1)[C@@H](C)O)[C@@H](C)O)C(=O)N[C@@H](C)C(=O)N[C@@H](CCC(N)=O)C(=O)NC(C)(C)C(=O)N[C@@H](C)C(=O)N[C@@H](Cc1ccccc1)C(=O)N[C@H](C(=O)N[C@@H](CCC(=O)O)C(=O)N[C@@H](Cc1ccc(O)cc1)C(=O)N[C@@H](CC(C)C)C(=O)N[C@H](C(=O)N[C@@H](CCC(=O)O)C(=O)NCC(=O)NCC(=O)N1CCC[C@H]1C(=O)N[C@@H](CO)C(=O)N[C@@H](CO)C(=O)NCC(=O)N[C@@H](C)C(=O)N1CCC[C@H]1C(=O)N1CCC[C@H]1C(=O)N1CCC[C@H]1C(=O)N[C@@H](CO)C(N)=O)[C@@H](C)CC)[C@@H](C)CC
# B13: Peptide 219 (peptide)
# peptide: YXEGTXTSDYSIXLDEKAQXEFIXYLIEGGPSSG
# modifications: Aib2; αMeF(2F)6; αMeL13; K17((2-[2-(2-Amino-ethoxy)-ethoxy]-acetyl)2-(γGlu)-CO-(CH2)16-CO2H); Aib20; D-Glu24; C-terminal NH2
# B14: Peptide 228 (peptide)
# peptide: B13 peptide with E16K
# modifications: Aib2; αMeF6; αMeL13; K17((2-[2-(2-Amino-ethoxy)-ethoxy]-acetyl)2-(γGlu)-CO-(CH2)18-CO2H); Aib20; D-Glu24; C-terminal NH2
# B15: Peptide 29 (peptide)
# peptide: Y[Aib]EGTFTSDYSILLDK([AEEA-AEEA-γGlu-C20 diacid])IAQ[Aib]AFIEYLIEGGPSSGAPPPS-NH2
# modifications: N-terminus assumed
# SMILES: CC[C@H](C)[C@H](NC(=O)[C@H](CCCCNC(=O)COCCOCCNC(=O)COCCOCCNC(=O)CC[C@H](NC(=O)CCCCCCCCCCCCCCCCCCC(=O)O)C(=O)O)NC(=O)[C@H](CC(=O)O)NC(=O)[C@H](CC(C)C)NC(=O)[C@H](CC(C)C)NC(=O)[C@@H](NC(=O)[C@H](CO)NC(=O)[C@H](Cc1ccc(O)cc1)NC(=O)[C@H](CC(=O)O)NC(=O)[C@H](CO)NC(=O)[C@@H](NC(=O)[C@H](Cc1ccccc1)NC(=O)[C@@H](NC(=O)CNC(=O)[C@H](CCC(=O)O)NC(=O)C(C)(C)NC(=O)[C@@H](N)Cc1ccc(O)cc1)[C@@H](C)O)[C@@H](C)O)[C@@H](C)CC)C(=O)N[C@@H](C)C(=O)N[C@@H](CCC(N)=O)C(=O)NC(C)(C)C(=O)N[C@@H](C)C(=O)N[C@@H](Cc1ccccc1)C(=O)N[C@H](C(=O)N[C@@H](CCC(=O)O)C(=O)N[C@@H](Cc1ccc(O)cc1)C(=O)N[C@@H](CC(C)C)C(=O)N[C@H](C(=O)N[C@@H](CCC(=O)O)C(=O)NCC(=O)NCC(=O)N1CCC[C@H]1C(=O)N[C@@H](CO)C(=O)N[C@@H](CO)C(=O)NCC(=O)N[C@@H](C)C(=O)N1CCC[C@H]1C(=O)N1CCC[C@H]1C(=O)N1CCC[C@H]1C(=O)N[C@@H](CO)C(N)=O)[C@@H](C)CC)[C@@H](C)CC
# Target: human GLP-1 receptor (human, UniProt P43220 24-463)
# Assay: cell-based or functional assay
row,Binder,hGLPIR cAMP EC50 ratio
1,B1,1.02
2,B2,1.15
3,B3,2.56
4,B4,1.14
5,B5,0.795
6,B6,0.962
7,B7,1.74
8,B8,1.22
9,B9,0.535
10,B10,0.238
11,B11,1.36
12,B12,0.197
13,B13,1.03
14,B14,1.1
15,B15,0.0671
